For two substances, percent of wildtype Eg5 recovered in the microtubule pellet results are on record in publication PMC4066659.

The assay concerns the target assembled microtubules. The assay is described as follows: co-sedimentation.

Turning to “His6-Eg5[Thr926Ala] (baculovirus) (from UniProt P52732 1-1056) (natural protein)”, the percent of wildtype Eg5 recovered in the microtubule pellet was determined as 28%.

As for “His6-Eg5[Ser1033Asp] (baculovirus) (from UniProt P52732 1-1056) (natural protein)”, the percent of wildtype Eg5 recovered in the microtubule pellet stood at 42%.
